Data on one substance can be found in paper PMC7984374.

The assay concerns the target fluorescein-labeled FITC-casein. Kind of assay: fluorescence polarisation. (In general: Polarisation of emitted light reports the rotation of a fluorescent probe.)

Regarding “ClpB_(K-12) (from UniProt P63284 1-857) (enzyme)”, the Kd (usually the concentration at which binding is half-saturated) was 0.56 µM.
